Consider one substance from patent publication US20140161803A1 (IFOM Fondazione Istituo FIRC di Oncologia Molecolare, priority 2011, published 2014).

The target in this test is T1, human uPAR (Homo sapiens, UniProt Q03405).
T1 construct: the mature protein (Leu^1-Gly^283) in bold; expressed in transfected cells; host or cells: HEK293 Flp-In T-REx (293)
Briefly: Real-time cell analyzer (xCELLigence) adhesion of 293/uPAR cells to VN. The format is cell-based. Particulars: cell index one hour after addition, highest antibody concentration 300 nM. The protocol:
The electric impedance (termed cell index, CI) was recorded at regular intervals. […] The curves show the normalized cell index (NCI, Y-axis) as a function of time (X-axis). All cell indexes were normalized to the cell index measured immediately prior to antibody addition. To determine IC50 values (panel D), the NCI measured one hour after antibody addition were calculated in % of the NCI for untreated cells at the same time point (ΔNCI, Y-axis) and graphed in function of antibody concentration (X-axis).
96-well E-Plates were coated with VN (5 μg/ml) or FN (10 μg/ml) over night at 4° C. Plates were washed with PBS, added 0.1 ml serum free medium (DMEM, 0.1% bovine serum albumin, 25 mM Hepes pH 7.0) and transferred to real-time cell analyzer instrument (xCELLigence SP, Roche Corp.). […] The plate was returned to the instrument and the cell index recorded every three minutes. […] After another 1-1.5 hours of measurements the plate was removed again and wells added (20 μl) of antibody diluted to yield the indicated final concentrations. The plate was returned to the instrument and measurements conducted every 3 minutes for 2 hours and then every 15 minutes for 18 hours.

Marks after values point to notes of the source that are not given here.

T1 sequence (Q03405 23-305): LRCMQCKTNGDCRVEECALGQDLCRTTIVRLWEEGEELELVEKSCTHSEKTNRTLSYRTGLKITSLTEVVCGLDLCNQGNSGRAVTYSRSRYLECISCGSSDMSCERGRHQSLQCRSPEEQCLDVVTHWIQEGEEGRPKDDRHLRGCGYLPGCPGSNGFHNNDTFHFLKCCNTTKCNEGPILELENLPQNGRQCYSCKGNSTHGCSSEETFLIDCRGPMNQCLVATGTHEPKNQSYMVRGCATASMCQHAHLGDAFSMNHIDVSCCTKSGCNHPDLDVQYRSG

Turning to “SMB: uPAR-binding N-terminal domain of VN, natural competitive antagonist of the uPAR/VN-interaction (DQESCKGRCTEGFNVDKKCQCDELCSYYQSCCTDYTAECKPQVT) [reference compound]”, the “% max inhibition (pro-uPA pre-treat.)” value (pro-uPA pre-treated 293/uPAR cells on VN) is 100* %. Also, under “vehicle pre-treated 293/uPAR cells on VN”, the “% max inhibition (veh. pre-treat.)” value is 100* %.
